This is an account of results in publication PMC10247153 (2022).

No end group written: not given here. Me3 = trimethyl; Me2 = dimethyl Bounds are passed on as bounds.

The target in test [1] is T1, PHD1 (KDM5C residues 318–378) (human, UniProt P41229-1 318-378).
T1 chain: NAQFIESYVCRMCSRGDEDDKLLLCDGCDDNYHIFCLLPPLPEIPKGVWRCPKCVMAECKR
The experiment in a line: NMR; lower limit, from I361.

Test [2] addresses T2, unmodified 147 bp mononucleosome (human, UniProt P68431 1-136). The test can be described thus: apparent Kd, EMSA, lower limit. (In EMSA bound probe runs differently from free probe, usually more slowly.)
The target in test [3] is T3, unmodified 187 bp mononucleosome (human, UniProt P68431 1-136). The experiment in a line: apparent, EMSA, lower limit.
In test [4] the target is T2, unmodified 147 bp mononucleosome. The experiment in a line: apparent, EMSA, lower limit.
For test [5] the target is unchanged. The test can be described thus: apparent Kd, EMSA, lower limit. This is another data set of the same source.
The target of test [6] is T3, unmodified 187 bp mononucleosome. The test can be described thus: apparent, EMSA.
Test [7] has as its target T2, unmodified 147 bp mononucleosome. The test can be described thus: apparent, EMSA.
Test [8] has as its target T1, PHD1 (KDM5C residues 318–378). The test can be described thus: NMR; from D343.
Another test addresses T4, PHD1 D343A mutant (human, UniProt P41229-1 318-378, D343A).
T4 sequence: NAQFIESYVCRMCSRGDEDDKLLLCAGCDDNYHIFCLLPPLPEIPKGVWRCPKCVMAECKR
The experiment in a line: NMR; lower limit, from I361.

In test [9] the target is T1, PHD1 (KDM5C residues 318–378). The test can be described thus: NMR; from I361.
Test [10] has as its target T5, Avitag-PHD1 (human, UniProt P41229-1 318-378, not fully specified; biotin on the Avitag (BirA co-expression)).
T5 chain: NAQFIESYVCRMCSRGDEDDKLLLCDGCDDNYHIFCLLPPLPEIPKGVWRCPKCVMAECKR
The experiment in a line: BLI; dissociation kobs2 (two phase). For orientation: BLI is a label-free optical method that tracks binding on a fibre tip over time.

Test [11] deals with T5, Avitag-PHD1. The test can be described thus: BLI; dissociation kobs1 (two phase).

For ARTK(Me3)QTARKSTGGKAPRK [H3K4me3 (1–18) peptide], the Kd in test [1] is above 1500 µM.

B1: KDM5C^(1–839 ΔAP) (domain or fragment)
chain: MEPGSDDFLPPPECPVFEPSWAEFRDPLGYIAKIRPIAEKSGICKIRPPADWQPPFAVEVDNFRFTPRIQRLNELEAQTRVKGGGGPPEAFGFEQATREYTLQSFGEMADSFKADYFNMPVHMVPTELVEKEFWRLVNSIEEDVTVEYGADIHSKEFGSGFPVSDSKRHLTPEEEEYATSGWNLNVMPVLEQSVLCHINADISGMKVPWLYVGMVFSAFCWHIEDHWSYSINYLHWGEPKTWYGVPSLAAEHLEEVMKKLTPELFDSQPDLLHQLVTLMNPNTLMSHGVPVVRTNQCAGEFVITFPRAYHSGFNQGYNFAEAVNFCTADWLPAGRQCIEHYRRLRRYCVFSHEELICKMAACPEKLDLNLAAAVHKEMFIMVQEERRLRKALLEKGITEAEREAFELLPDDERQCIKCKTTCFLSALACYDCPDGLVCLSHINDLCKCSSSRQYLRYRYTLDELPAMLHKLKVRAESFDTWANKVRVALEVEDGRKRSLEELRALESEARERRFPNSELLQQLKNCLSEAEACVSRALGLVSGQEAG
As to B1, the Kd is above 35 µM in test [2], above 42 µM in test [3] and above 35 µM in test [4].

B2: KDM5C1-839 ΔAP A388P (protein)
chain: MEPGSDDFLPPPECPVFEPSWAEFRDPLGYIAKIRPIAEKSGICKIRPPADWQPPFAVEVDNFRFTPRIQRLNELEAQTRVKGGGGPPEAFGFEQPTREYTLQSFGEMADSFKADYFNMPVHMVPTELVEKEFWRLVNSIEEDVTVEYGADIHSKEFGSGFPVSDSKRHLTPEEEEYATSGWNLNVMPVLEQSVLCHINADISGMKVPWLYVGMVFSAFCWHIEDHWSYSINYLHWGEPKTWYGVPSLAAEHLEEVMKKLTPELFDSQPDLLHQLVTLMNPNTLMSHGVPVVRTNQCAGEFVITFPRAYHSGFNQGYNFAEAVNFCTADWLPAGRQCIEHYRRLRRYCVFSHEELICKMAACPEKLDLNLAAAVHKEMFIMVQEERRLRKALLEKGITEAEREAFELLPDDERQCIKCKTTCFLSALACYDCPDGLVCLSHINDLCKCSSSRQYLRYRYTLDELPAMLHKLKVRAESFDTWANKVRVALEVEDGRKRSLEELRALESEARERRFPNSELLQQLKNCLSEAEACVSRALGLVSGQEAG
For B2, in test [5], the Kd is above 45 µM.

B3: ARID (KDM5C residues 73–188) (domain or fragment)
chain: NELEAQTRVKLNYLDQIAKFWEIQGSSLKIPNVERRILDLYSLSKIVVEEGGYEAICKDRRWARVAQRLNYPPGKNIGSLLRSHYERIVYPYEMYQSGANLVQCNTRPFDNEEKDK
Consider B3, for which the Kd was 22 µM in test [6] and 31 µM in [7]. With ARTKQTARKSTGGKAPRK [H3 (1–18) tail peptide], the Kd in test [8] is 140 µM; with PHD1 D343A mutant it was above 1450 µM. The molecule ARTK(Me)QTARKSTGGKAPRK [H3K4me1 (1–18) peptide] came in with a Kd in test [9] of 313 µM.

B4: KDM5C^1–839 K101A/R107A (domain or fragment)
chain: MEPGSDDFLPPPECPVFEPSWAEFRDPLGYIAKIRPIAEKSGICKIRPPADWQPPFAVEVDNFRFTPRIQRLNELEAQTRVKLNYLDQIAKFWEIQGSSLAIPNVEARILDLYSLSKIVVEEGGYEAICKDRRWARVAQRLNYPPGKNIGSLLRSHYERIVYPYEMYQSGANLVQCNTRPFDNEEKDKEYKPHSIPLRQSVQPSKFNSYGRRAKRLQPDPEPTEEDIEKNPELKKLQIYGAGPKMMGLGLMAKDKTLRKKDKEGPECPPTVVVKEELGGDVKVESTSPKTFLESKEELSHSPEPCTKMTMRLRRNHSNAQFIESYVCRMCSRGDEDDKLLLCDGCDDNYHIFCLLPPLPEIPKGVWRCPKCVMAECKRPPEAFGFEQATREYTLQSFGEMADSFKADYFNMPVHMVPTELVEKEFWRLVNSIEEDVTVEYGADIHSKEFGSGFPVSDSKRHLTPEEEEYATSGWNLNVMPVLEQSVLCHINADISGMKVPWLYVGMVFSAFCWHIEDHWSYSINYLHWGEPKTWYGVPSLAAEHLEEVMKKLTPELFDSQPDLLHQLVTLMNPNTLMSHGVPVVRTNQCAGEFVITFPRAYHSGFNQGYNFAEAVNFCTADWLPAGRQCIEHYRRLRRYCVFSHEELICKMAACPEKLDLNLAAAVHKEMFIMVQEERRLRKALLEKGITEAEREAFELLPDDERQCIKCKTTCFLSALACYDCPDGLVCLSHINDLCKCSSSRQYLRYRYTLDELPAMLHKLKVRAESFDTWANKVRVALEVEDGRKRSLEELRALESEARERRFPNSELLQQLKNCLSEAEACVSRALGLVSGQEAG
B4: the Kd in test [6] is 6.3 µM; in test [4], above 15.1 µM.

B5: KDM5C^1–839 (domain or fragment)
chain: MEPGSDDFLPPPECPVFEPSWAEFRDPLGYIAKIRPIAEKSGICKIRPPADWQPPFAVEVDNFRFTPRIQRLNELEAQTRVKLNYLDQIAKFWEIQGSSLKIPNVERRILDLYSLSKIVVEEGGYEAICKDRRWARVAQRLNYPPGKNIGSLLRSHYERIVYPYEMYQSGANLVQCNTRPFDNEEKDKEYKPHSIPLRQSVQPSKFNSYGRRAKRLQPDPEPTEEDIEKNPELKKLQIYGAGPKMMGLGLMAKDKTLRKKDKEGPECPPTVVVKEELGGDVKVESTSPKTFLESKEELSHSPEPCTKMTMRLRRNHSNAQFIESYVCRMCSRGDEDDKLLLCDGCDDNYHIFCLLPPLPEIPKGVWRCPKCVMAECKRPPEAFGFEQATREYTLQSFGEMADSFKADYFNMPVHMVPTELVEKEFWRLVNSIEEDVTVEYGADIHSKEFGSGFPVSDSKRHLTPEEEEYATSGWNLNVMPVLEQSVLCHINADISGMKVPWLYVGMVFSAFCWHIEDHWSYSINYLHWGEPKTWYGVPSLAAEHLEEVMKKLTPELFDSQPDLLHQLVTLMNPNTLMSHGVPVVRTNQCAGEFVITFPRAYHSGFNQGYNFAEAVNFCTADWLPAGRQCIEHYRRLRRYCVFSHEELICKMAACPEKLDLNLAAAVHKEMFIMVQEERRLRKALLEKGITEAEREAFELLPDDERQCIKCKTTCFLSALACYDCPDGLVCLSHINDLCKCSSSRQYLRYRYTLDELPAMLHKLKVRAESFDTWANKVRVALEVEDGRKRSLEELRALESEARERRFPNSELLQQLKNCLSEAEACVSRALGLVSGQEAG
In the case of B5, the Kd in test [6] came out at 4.3 µM. The koff is the rate constant with which the complex falls apart. Low values mean slow dissociation, high ones fast dissociation. For Ac-QSVQPSKFNSYGRRAKRLQP-NH2 [KDM5C (199–218) peptide], the values for the koff in the test with Avitag-PHD1 [10] and with Avitag-PHD1 [11] were 0.02 s⁻¹ and 1.45 s⁻¹, respectively. The molecule also came in with a Kd in [8] of 440 µM. For the molecule ARTK(Me2)QTARKSTGGKAPRK [H3K4me2 (1–18) peptide], the Kd in test [1] is above 900 µM. Consider Ac-KEELSHSPEPCTKMTMRLRR-NH2 [KDM5C (295–314) peptide], for which the off-rate (koff) is 0.04 s⁻¹ with Avitag-PHD1 [10] and 2.2 s⁻¹ with Avitag-PHD1 [11].
